66 sequences from the supplement of paper PMC10126150 can be followed below.

± gives the standard deviation of the averaged measurements.
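Also: ATP exposure 15 min at 22 °C before imaging.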

The test system of this data set is ATP. Kind of data set: switch fluorescence ratio, 500 uM ATP over buffer (Cy3 cluster intensity, sum of 5 cycles each) (fold (ratio)); higher = stronger signal-on switching upon ATP binding; sequences stand for … in TCGTCGGCAGCGTCAGATGTGTATAAGAGACAGTTTTTTTTTTTTTTTTTTTTTTTTT…TC. The following applies: aptamer strand: ATP DNA aptamer (quencher-CACCTGGGGGAGTATTGCGGAGGAAGG + anchor), 100 nM annealed; ATP concentration: 500 uM. The method, boiled down: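 Switching-strand clusters labelled with Cy3 on a modified Illumina MiSeq flow-cell were annealed to 100 nM quencher-labelled ATP aptamer, imaged in selection buffer, and re-imaged after 15 min with 500 uM ATP at 22 °C. This was done over five cycles with NaOH stripping and re-annealing in between. The fluorescence ratio is summed target-cycle over summed buffer-cycle Cy3 intensity per cluster, averaged per switch-domain sequence, excluding clusters outside 100-1000 RFU.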
Regarding CAACTGGCGG, the switch fluorescence ratio was determined as 0.99 ± 0.017.

As to TTCGTCATGG, the switch fluorescence ratio is 1.027 ± 0.0075.

Take GAGTGGGATT: the switch fluorescence ratio was found to be 0.981 ± 0.011.

Take GGGGTGGAGG: the switch fluorescence ratio was determined as 1.02 ± 0.017.

For GATACCGTGC, the switch fluorescence ratio was determined as 1.18 ± 0.061.

Regarding CCATGGGTGG, the switch fluorescence ratio was found to be 1.01 ± 0.011.

Take GGCCGGAGAC: the switch fluorescence ratio is 1.15 ± 0.041.

Regarding CACAAGGCGG, the switch fluorescence ratio was 1.03 ± 0.041.

For ATTCTACGGC, the switch fluorescence ratio turned out to be 1.06 ± 0.073.

As for CATATTATGT, the switch fluorescence ratio came out at 1.02 ± 0.011.

As to GGTCGAAGGC, the switch fluorescence ratio came to 0.9859 ± 0.0069.

Consider TGCATATAAT, for which the switch fluorescence ratio was determined as 1.018 ± 0.0014.

For TAATTAATAG, the switch fluorescence ratio was determined as 0.9971 ± 0.0031.

For the sequence TTAGGGGTCC, the switch fluorescence ratio was 0.998 ± 0.022.

Consider TAAGATGTAG, for which the switch fluorescence ratio is 0.9957 ± 0.0011.

Turning to AAGATTTTGG, the switch fluorescence ratio was 0.979 ± 0.015.

Regarding TTTTAATTGA, the switch fluorescence ratio came to 1.02 ± 0.031.

TTTTGGAGGA: the switch fluorescence ratio was determined as 1.02 ± 0.019.

On to CTGGTTACAC, for which the switch fluorescence ratio came out at 1.03 ± 0.033.

On to ACTCGCGGGC, for which the switch fluorescence ratio worked out at 1.98 ± 0.21.

As to TGGGGTATAG, the switch fluorescence ratio stood at 1.01 ± 0.018.

For the sequence GAAGTTCGGC, the switch fluorescence ratio was 1.006 ± 0.0056.

Consider AACTTTATCC, for which the switch fluorescence ratio is 1.09 ± 0.042.

For the sequence TAATGTTTGC, the switch fluorescence ratio is 1.01 ± 0.033.

In the case of CGGGATTTAG, the switch fluorescence ratio is 1 ± 0.014.

On to GCTGAAAGGC, for which the switch fluorescence ratio came to 1.09 ± 0.061.

On to GGGTGGCTCG, for which the switch fluorescence ratio was determined as 0.997 ± 0.046.

Regarding TGAAAGCCCG, the switch fluorescence ratio was 1.048 ± 0.0056.

As for ATCGATACTT, the switch fluorescence ratio came to 1.067 ± 0.0098.

Take GGAATTCGAT: the switch fluorescence ratio is 1.004 ± 0.006.

GATTGTTCGT: the switch fluorescence ratio was 1.031 ± 0.0085.

Take AGAGCAATTG: the switch fluorescence ratio worked out at 1.19 ± 0.014.

As to ATGTGGAGTC, the switch fluorescence ratio is 1.05 ± 0.063.

With AAAAAAAGCT, the switch fluorescence ratio was found to be 1.06 ± 0.075.

On to CTATGGGATG, for which the switch fluorescence ratio is 0.992 ± 0.039.

With TAAGGAGGTG, the switch fluorescence ratio is 1.033 ± 0.008.

For the sequence GGACTTTAAT, the switch fluorescence ratio was 1 ± 0.017.

GGTGCCGCGG: the switch fluorescence ratio is 1.01 ± 0.023.

With TGGTTACATG, the switch fluorescence ratio is 1.02 ± 0.014.

With GACTTTACTG, the switch fluorescence ratio was 1.06 ± 0.049.

Consider GTTATAAGGG, for which the switch fluorescence ratio came out at 0.975 ± 0.03.

Regarding CCATTTATTT, the switch fluorescence ratio came to 1.02 ± 0.019.

In the case of AGCCACTGGA, the switch fluorescence ratio came to 1.06 ± 0.059.

As to GCTTATTATT, the switch fluorescence ratio is 1.023 ± 0.0026.

In the case of ACTTTCATGG, the switch fluorescence ratio is 1.01 ± 0.018.

For the sequence CAGCCCGGTC, the switch fluorescence ratio was 1.06 ± 0.048.

In the case of TTTTTTGAGA, the switch fluorescence ratio came out at 0.975 ± 0.017.

Consider AAAATCTAAA, for which the switch fluorescence ratio worked out at 1.014 ± 0.0068.

As for GGGATTTGG, the switch fluorescence ratio was 0.985 ± 0.015.

Take GGATGCCGGG: the switch fluorescence ratio was 1 ± 0.043.

For ACATGGTAGT, the switch fluorescence ratio amounted to 0.97 ± 0.041.

TTTTGTTGTT: the switch fluorescence ratio stood at 0.995 ± 0.035.

On to GCATTAGTAT, for which the switch fluorescence ratio stood at 0.935 ± 0.044.

Turning to GCAGGGACAA, the switch fluorescence ratio is 1.01 ± 0.018.

For the sequence ATAGGATTTT, the switch fluorescence ratio is 0.985 ± 0.034.

Consider TGGTAATTGG, for which the switch fluorescence ratio was determined as 0.98 ± 0.01.

CAAATGGAAG: the switch fluorescence ratio was 0.998 ± 0.028.

With AAGTTCTGGA, the switch fluorescence ratio was determined as 0.976 ± 0.07.

On to TTTGATGTTT, for which the switch fluorescence ratio is 1 ± 0.031.

On to TATTTAGTTT, for which the switch fluorescence ratio is 1.01 ± 0.023.

For AGGCGATAAT, the switch fluorescence ratio turned out to be 1.12 ± 0.13.

Consider GGCGACGGGG, for which the switch fluorescence ratio was found to be 1 ± 0.02.

On to GAGTAGGCTA, for which the switch fluorescence ratio is 0.973 ± 0.035.

For TCTCCTGGGA, the switch fluorescence ratio was found to be 1.03 ± 0.018.

Take GTTTAAAGTC: the switch fluorescence ratio worked out at 0.989 ± 0.059.

With GGCGGGTATG, the switch fluorescence ratio turned out to be 1.0223 ± 0.00097.
